Measurements from paper PMC4404995.

Substrate: CC(=O)c1ccc(O[C@@H]2O[C@H](CO)[C@@H](O)[C@H](O)[C@H]2O)cc1
Test: LC-MS assay of aglycon release
Type: biochemical, Picea glauca
Details: 0.01–2.0 mM picein, 20 mM MES-KOH, pH 6, 37°C, 1 h

B1: PgβGLU-1 (Picea glauca) (protein)
chain: TSPDLGRSSFPKGFKFGAGSSAYQDEGAALEGGKGPSIWDTFSHIQGKIEDGKNGDVAVDQYHRYKEDVRHLKYMGMDLYRFSISWSRIFPQGSPRHGGVNEEGITYYNNLINELLKNGMEPFVTLYHWDMPQALEDEYGGFRSQRVVEDIGTFAEECFRAFGDRVKYWTTINEPLTFTLYGYDLGIHAPGRCSPGFGNCTAGNSATEPYIVTHNMLLAHSAAVKTYRTKYQGKQKGSIGISLVVNWMVPYSNSLLDQEATQRAIDFRIGWFLDPLTSGKYPDSMRSLVGARLPRFSSEEAKDLKGSFDFLGYNYYQTYFTVNNPTPQNSLNTDYVLDAQANISQQVNGVYVGSSEGVSSFRSYPAGLREVINYTKHRYSNPPIYITETGYGDFDNGTTPLEEALQDSGRVEYYSKHLSSLLEAIREGADVRGYVVWSFLDGFEWASGYDYRFGLYYVDYNDNLKRYPRESANWFRNVLKS
  Km: 1.28 ± 0.53 mM
